From publication PMC10693601
Several values for one entry are separate records, joined by “and”; a condition that tells them apart may be missing. Identical values can stand only once.

Biological target: AIM2 (Absent In Melanoma 2), full length, without MBP tag, labeled with Alexa Fluor 488 (human) (UniProt O14862)
Test: single-molecule confocal fluorescence microscopy with optical tweezers; Alexa 488-labeled protein (~0.2-14 nM) in the protein channel, on a single biotinylated lambda-phage dsDNA (48.5 kbp) tethered between two optically trapped streptavidin beads; 2D scans, movies and kymographs; oligomer size from photon counts (11 per fluorophore); 20 mM HEPES pH 7.5, 160 mM KCl, 1 mM BME, 0.1% Triton X-100, 5% glycerol; room temperature

oligomer growth rate (highest observed): < 28 molecules/s
oligomer growth rate (oligomers of 1-20 molecules, low nanomolar): 0.2 to 7 molecules/s
oligomer growth rate at 0.5 nM AIM2: 7.4 s⁻¹
oligomer growth rate at 1 nM AIM2 (bottom kymograph, dimer to hexamer): 94 s⁻¹
oligomer growth rate at 1 nM AIM2 (middle kymograph, starting from a monomer): 5.8 s⁻¹
oligomer growth rate at 2 nM AIM2: 10.7 s⁻¹
oligomer growth rate at 2 nM AIM2 (4 to 6 molecules): 11.4 s⁻¹
oligomer growth rate at 10 nM AIM2 (4 to 11 molecules): 25.3 s⁻¹
oligomer growth rate at 10 nM AIM2 (top kymograph): 302 s⁻¹
oligomer growth rate at 13.5 nM AIM2: 34 s⁻¹
Substance: AIM2 (Absent In Melanoma 2), full length, without MBP tag, labeled with Alexa Fluor 488 (from UniProt O14862 1-343) (natural protein)
stoichiometry N: < 25 molecules and 13 molecules to 15 molecules (2×)
